In article PMC4951691:

What was measured:
[1] = target: Cryptococcus neoformans Golgi Reassembly and Stacking Protein (CnGRASP) (Cryptococcus neoformans); assay: dynamic light scattering; Nano-ZS, 20 °C, 25 mM Hepes/NaOH, 150 mM NaCl, 1 mM beta-mercaptoethanol, 10% glycerol, pH 7.4; mass worked out from the Rh of 3.9 nm
[2] = target: Cryptococcus neoformans Golgi Reassembly and Stacking Protein (CnGRASP) (Cryptococcus neoformans); assay: SEC; Superdex 200 (HR 10/30), Akta purifier; hydrodynamic radius from the partition coefficient against standard proteins (calibration kit LMW/HMW); CHAPS left out of the protein preparation
[3] = target: Cryptococcus neoformans Golgi Reassembly and Stacking Protein (CnGRASP) (Cryptococcus neoformans); assay: SEC + other: zone sedimentation in a sucrose gradient; Siegel and Monte model: Rh from SEC combined with the sedimentation coefficient (about 4.2 S) from a 10 to 35% sucrose gradient in 25 mM Hepes/NaOH, 150 mM NaCl, pH 7.4; CnGRASP less than 1 mg/mL; 100,000 g for 4 h at 4 °C

Measured: stoichiometry N

Cryptococcus neoformans Golgi Reassembly and Stacking Protein (CnGRASP) (natural protein)
2: all assays above
